From patent publication US20120263722A1 (AbbVie / Abbott, published 2012)

Assays:
Recombinant Human DLL4 = molecular target: T1, Recombinant Human DLL4 (human, UniProt Q9NR61 27-524); assay: SPR (BIACORE), N-terminal variable domain to target antigen
T1 construct: Bought reagent used in the Biacore analyses; also called Delta-like ligand 4
Description: (§1) The BIACORE assay (Biacore, Inc, Piscataway, N.J.) determines the affinity of antibodies or DVD-Ig with kinetic measurements of on-rate and off-rate constants. Binding of antibodies or DVD-Ig to a target antigen (for example, a purified recombinant target antigen) was determined by surface plasmon resonance-based measurements with a Biacore® 1000 or 3000 instrument (Biacore® AB. Uppsala, Sweden) using running HBS-EP (10 mM HEPES [pH 7.4], 150 mM NaCl, 3 mM EDTA, and 0.005% surfactant P20) at 25° C. All chemicals were obtained from Biacore® AB (Uppsala, Sweden) or otherwise from a different source as described in the text.
(§2) For example, approximately 5000 RU of goat anti-mouse IgG, (Fcγ), fragment specific polyclonal antibody (Pierce Biotechnology Inc, Rockford, Ill.) diluted in 10 mM sodium acetate (pH 4.5) is directly immobilized across a CMS research grade biosensor chip using a standard amine coupling kit according to manufacturer's instructions and procedures at 25 μg/ml. Unreacted moieties on the biosensor surface are blocked with ethanolamine. Modified carboxymethyl dextran surface in flowcell 2 and 4 is used as a reaction surface. Unmodified carboxymethyl dextran without goat anti-mouse. IgG in flow cell 1 and 3 is used as the reference surface. For kinetic analysis, rate equations derived from the 1:1 Langmuir binding model are fitted simultaneously to association and dissociation phases of all eight injections (using global fit analysis) with the use of Biaevaluation 4.0.1 software. Purified antibodies or DVD-Ig are diluted in HEPES-buffered saline for capture across goat anti-mouse IgG specific reaction surfaces. Antibodies or DVD-Ig, to be captured as a ligand (25 μg/ml) are injected over reaction matrices at a flow rate of 5 μl/min. The association and dissociation rate constants, kₒₙ(M⁻¹s⁻¹) and koff (s⁻¹) are determined under a continuous flow rate of 25 μl/min. Rate constants are derived by making kinetic binding measurements at different antigen concentrations ranging from 10-200 nM. The equilibrium dissociation constant (M) of the reaction between antibodies or DVD-Igs and the target antigen is then calculated from the kinetic rate constants by the following formula: KD=koff/Kₒₙ. Binding is recorded as a function of time and kinetic rate constants are calculated.

Recombinant Human PIGF = molecular target: T2, Recombinant Human PIGF (human, UniProt P49763-2 21-149, limits assumed); assay: as above
T2 construct: Bought reagent used in the Biacore analyses; also called PlGF; placental growth factor
T2 sequence (looked up): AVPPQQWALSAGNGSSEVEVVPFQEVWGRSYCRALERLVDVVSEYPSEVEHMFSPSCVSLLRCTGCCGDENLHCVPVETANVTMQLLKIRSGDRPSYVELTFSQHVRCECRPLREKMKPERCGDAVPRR
Description: as §1, §2

[1] = molecular target: T3, Recombinant Human MSP R/RON (human, UniProt Q04912 25-571, limits assumed); assay: as above
T3 construct: Bought reagent used in the Biacore analyses; also called macrophage stimulating protein receptor tyrosine kinase
Description: as §1, §2

[2] = molecular target: T4, Recombinant Human Neuropilin-1 (human, UniProt O14786-2 22-644, limits assumed); assay: as above
T4 construct: Bought reagent used in the Biacore analyses; also called NRP1; NRP-1
Description: as §1, §2

NRP1 on the cell surface = molecular target: T5, NRP1 on the cell surface (human, UniProt O14786 22-923); assay: flow cytometry on cells carrying the target, antibody or DVD-Ig at 2 ug/mL
T5 construct: whole, on cells; also called neuropilin 1
Description: (§3) Binding of monoclonal antibodies to the surface of human tumor cell fines was assessed by flow cytometry. For example, stable cell lines overexpressing a cell-surface antigen of interest or human tumor cell lines were harvested from tissue culture flasks and resuspended in phosphate buffered saline (PBS) containing 5% fetal bovine serum (PBS/FBS). Prior to staining, human tumor cells were incubated on ice with (100 μl) human IgG at 5 μg/ml in PBS/FCS. 1-5×10⁵ cells were incubated with antibody or DVD-Ig (2 μg/mL) in PBS/FBS for 30-60 minutes on ice. […] After 30 minutes incubation on ice, cells were washed twice and resuspended in PBS/PBS. Fluorescence was measured using a Becton Dickinson FACSCalibur (Becton Dickinson, San Jose, Calif.).
(§4) The geometric mean is the n root of the multiplication product of n fluorescent signals (a1×a2×a3 . . . an). With log-transformed data the geometric mean is used to normalize the weighting of the data distribution.

EGFR on the cell surface = molecular target: T6, EGFR on the cell surface (human, UniProt P00533 25-1210); assay: as above
T6 construct: whole, on cells; also called epidermal growth factor receptor
Description: as §3, §4

[3] = molecular target: T7, CD-19 on the cell surface (human, UniProt P15391 20-556); assay: as above
T7 construct: whole, on cells
T7 sequence (looked up): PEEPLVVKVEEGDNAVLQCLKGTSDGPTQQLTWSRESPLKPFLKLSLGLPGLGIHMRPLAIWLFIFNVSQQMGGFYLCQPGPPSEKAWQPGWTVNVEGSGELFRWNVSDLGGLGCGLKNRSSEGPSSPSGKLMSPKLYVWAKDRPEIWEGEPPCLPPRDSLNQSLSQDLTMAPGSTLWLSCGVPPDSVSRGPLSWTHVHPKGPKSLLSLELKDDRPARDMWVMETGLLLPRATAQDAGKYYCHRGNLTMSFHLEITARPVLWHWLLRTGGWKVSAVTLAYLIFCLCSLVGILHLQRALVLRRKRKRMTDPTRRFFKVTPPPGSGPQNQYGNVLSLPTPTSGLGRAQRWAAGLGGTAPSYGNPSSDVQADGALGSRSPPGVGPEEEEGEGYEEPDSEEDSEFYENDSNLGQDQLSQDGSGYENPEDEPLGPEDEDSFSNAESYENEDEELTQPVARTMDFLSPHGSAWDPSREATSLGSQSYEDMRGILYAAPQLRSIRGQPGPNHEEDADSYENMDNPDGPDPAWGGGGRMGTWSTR
Description: as §3, §4

[4] = molecular target: T8, CD-80 on the cell surface (human, UniProt P33681 35-288); assay: as above
T8 construct: whole, on cells
T8 sequence (looked up): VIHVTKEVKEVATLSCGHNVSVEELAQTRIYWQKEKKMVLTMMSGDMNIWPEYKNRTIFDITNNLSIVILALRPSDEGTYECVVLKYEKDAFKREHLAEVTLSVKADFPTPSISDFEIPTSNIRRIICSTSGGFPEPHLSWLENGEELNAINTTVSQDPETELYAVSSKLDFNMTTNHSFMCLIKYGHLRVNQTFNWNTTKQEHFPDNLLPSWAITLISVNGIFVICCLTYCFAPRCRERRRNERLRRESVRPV
Description: as §3, §4

T1 sequence (Q9NR61 27-524 limits assumed): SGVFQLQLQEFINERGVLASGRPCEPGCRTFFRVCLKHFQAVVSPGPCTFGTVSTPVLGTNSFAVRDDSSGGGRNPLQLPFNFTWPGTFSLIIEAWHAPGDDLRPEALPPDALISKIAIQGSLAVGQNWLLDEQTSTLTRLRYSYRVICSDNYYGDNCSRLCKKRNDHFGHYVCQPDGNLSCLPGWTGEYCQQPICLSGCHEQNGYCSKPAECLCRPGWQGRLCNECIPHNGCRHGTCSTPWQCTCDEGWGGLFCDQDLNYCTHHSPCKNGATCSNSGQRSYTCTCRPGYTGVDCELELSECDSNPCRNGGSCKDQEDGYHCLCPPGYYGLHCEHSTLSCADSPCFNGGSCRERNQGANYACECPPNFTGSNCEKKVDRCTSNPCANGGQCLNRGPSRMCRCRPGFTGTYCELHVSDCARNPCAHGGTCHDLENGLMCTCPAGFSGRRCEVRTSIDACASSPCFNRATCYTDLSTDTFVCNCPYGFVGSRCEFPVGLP

B1: DVD1867 (bispecific antibody, human IgG1, kappa)
heavy: not shown
light: DIQMTQSPSSLSASVGDRVTITCRASQDVSTAVAWYQQKPGKAPKLLIYSASFLYSGVPSRFSGSGSGTDFTLTISSLQPEDFATTYYCQQSYTGTVTFGQGTKVEIKRTVAAPQIVLIQSPAIMSASPGEKVTMTCSASSSVSYMYWYQQKPGSSPRLLIYDTSNLASGVPVRFSGSGSGTSYSLTISRMEAEDAATYYCQQWSGYPYTFGGGTKLEIKRTVAAPSVFIFPPSDEQLKSGTASVVCLLNNFYPREAKVQWKVDNALQSGNSQESVTEQDSKDSTYSLSSTLTLSKADYEKHKVYACEVTHQGLSSPVTKSFNRGEC
notes: Outer domain anti-DLL4 (AB015), inner domain anti-IL-6 (AB040); also called DVD1867H; DVD1867L
- Kd (Recombinant Human DLL4): 0.49 nM
- koff (Recombinant Human DLL4): 0.00022 s⁻¹
- kon (Recombinant Human DLL4): 460000 M⁻¹ s⁻¹

B2: DVD1869 (bispecific antibody, human IgG1, kappa)
heavy: not shown
light: DIVLTQSPDSLAVSLGERVTMNCKSSQSLLNSGMRKSFLAWYQQKPGQSPKLLIYWASTRESGVPDRFTGSGSGTDFTLTISSVQAEDVAVYYCKQSYHLFTFGSGTKLEIKRTVAAPQIVLIQSPAIMSASPGEKVTMTCSASSSVSYMYWYQQKPGSSPRLLIYDTSNLASGVPVRFSGSGSGTSYSLTISRMEAEDAATYYCQQWSGYPYTFGGGTKLEIKRTVAAPSVFIFPPSDEQLKSGTASVVCLLNNFYPREAKVQWKVDNALQSGNSQESVTEQDSKDSTYSLSSTLTLSKADYEKHKVYACEVTHQGLSSPVTKSFNRGEC
notes: Outer domain anti-PlGF (AB047), inner domain anti-IL-6 (AB040); also called DVD1869H; DVD1869L
- Kd (Recombinant Human PIGF): 0.02 nM
- koff (Recombinant Human PIGF): 0.00011 s⁻¹
- kon (Recombinant Human PIGF): 5.6e+06 M⁻¹ s⁻¹

B3: DVD1871 (bispecific antibody, human IgG1, kappa)
heavy: not shown
light: QAVLTQPSSLSAPPGASASLTCTLRSGFNVDSYRISWYQQKPGSPPQYLLRYKSDSDKQQGSGVPSRFSGSKDASANAGILLISGLQSEDEADYYCMIWHSSAWVFGGGTKLTVLRTVAAPQIVLIQSPAIMSASPGEKVTMTCSASSSVSYMYWYQQKPGSSPRLLIYDTSNLASGVPVRFSGSGSGTSYSLTISRMEAEDAATYYCQQWSGYPYTFGGGTKLEIKRTVAAPSVFIFPPSDEQLKSGTASVVCLLNNFYPREAKVQWKVDNALQSGNSQESVTEQDSKDSTYSLSSTLTLSKADYEKHKVYACEVTHQGLSSPVTKSFNRGEC
notes: also called DVD1871H; DVD1871L
- Kd [1]: > 1 nM
- koff [1]: > 0.01 s⁻¹
- kon [1]: > 1e+07 M⁻¹ s⁻¹

B4: DVD1889 (bispecific antibody, human IgG1, kappa)
heavy: not shown
light: DIQMTQSPSSLSASVGDRVTITCRASQSISSYLAWYQQKPGKAPKLLIYGASSRASGVPSRFSGSGSGTDFTLTISSLQPEDFATYYCQQYMSVPITFGQGTKVEIKRTVAAPQIVLIQSPAIMSASPGEKVTMTCSASSSVSYMYWYQQKPGSSPRLLIYDTSNLASGVPVRFSGSGSGTSYSLTISRMEAEDAATYYCQQWSGYPYTFGGGTKLEIKRTVAAPSVFIFPPSDEQLKSGTASVVCLLNNFYPREAKVQWKVDNALQSGNSQESVTEQDSKDSTYSLSSTLTLSKADYEKHKVYACEVTHQGLSSPVTKSFNRGEC
notes: also called DVD1889H; DVD1889L
- Kd [2]: 0.5 nM
- koff [2]: 0.00019 s⁻¹
- kon [2]: 380000 M⁻¹ s⁻¹
- N-Terminal VD GEO MEAN (FACS geometric mean) (NRP1 on the cell surface): 15

B5: DVD1853 (bispecific antibody, human IgG1, kappa)
heavy: not shown
light: DVVMTQSPLSLPVTPGEPASISCRSSQSLLHSNGFNYVDWYLQKPGQSPHLLIYFGSYRASGVPDRFSGSGSGTDFTLKISRVEAEDVGVYYCMQALQTPPWTFGQGTKVEIRRTVAAPQIVLIQSPAIMSASPGEKVTMTCSASSSVSYMYWYQQKPGSSPRLLIYDTSNLASGVPVRFSGSGSGTSYSLTISRMEAEDAATYYCQQWSGYPYTFGGGTKLEIKRTVAAPSVFIFPPSDEQLKSGTASVVCLLNNFYPREAKVQWKVDNALQSGNSQESVTEQDSKDSTYSLSSTLTLSKADYEKHKVYACEVTHQGLSSPVTKSFNRGEC
notes: also called DVD1853H; DVD1853L
- Kd [1]: 15 nM
- koff [1]: 0.00085 s⁻¹
- kon [1]: 58000 M⁻¹ s⁻¹

B6: DVD1875 (bispecific antibody, human IgG1, kappa)
heavy: not shown
light: DIQMTQSPSSLSASVGDRVTITCQASQDISNYLNWYQQKPGKAPKLLIYDASNLETGVPSRFSGSGSGTDFTFTISSLQPEDIATYFCQHFDHLPLAFGGGTKVEIKRTVAAPQIVLIQSPAIMSASPGEKVTMTCSASSSVSYMYWYQQKPGSSPRLLIYDTSNLASGVPVRFSGSGSGTSYSLTISRMEAEDAATYYCQQWSGYPYTFGGGTKLEIKRTVAAPSVFIFPPSDEQLKSGTASVVCLLNNFYPREAKVQWKVDNALQSGNSQESVTEQDSKDSTYSLSSTLTLSKADYEKHKVYACEVTHQGLSSPVTKSFNRGEC
notes: also called DVD1875H; DVD1875L
- N-Terminal VD GEO MEAN (FACS geometric mean) (EGFR on the cell surface): 717

B7: DVD1907 (bispecific antibody, human IgG1, kappa)
heavy: not shown
light: DIQMTQSPSSMSVSVGDRVTITCHSSQDINSNIGWLQQKPGKSFKGLIYHGTNLDDGVPSRFSGSGSGTDYTLTISSLQPEDFATYYCVQYAQFPWTFGGGTKLEIKRTVAAPQIVLIQSPAIMSASPGEKVTMTCSASSSVSYMYWYQQKPGSSPRLLIYDTSNLASGVPVRFSGSGSGTSYSLTISRMEAEDAATYYCQQWSGYPYTFGGGTKLEIKRTVAAPSVFIFPPSDEQLKSGTASVVCLLNNFYPREAKVQWKVDNALQSGNSQESVTEQDSKDSTYSLSSTLTLSKADYEKHKVYACEVTHQGLSSPVTKSFNRGEC
notes: also called DVD1907H; DVD1907L
- N-Terminal VD GEO MEAN (FACS geometric mean) (EGFR on the cell surface): 23.5

B8: AB016 (antibody, V domains shown)
VH: EVQLVESGGGLVQPGGSLRLSCAASGFSFSSEPISWVRQAPGKGLEWVSSITGKNGYTYYADSVKGRFTISADTSKNTAYLQMNSLRAEDTAVYYCARWGKKVYGMDVWGQGTLVTVSS
VL: DIQMTQSPSSLSASVGDRVTITCRASQSISSYLAWYQQKPGKAPKLLIYGASSRASGVPSRFSGSGSGTDFTLTISSLQPEDFATYYCQQYMSVPITFGQGTKVEIKR
notes: Parent antibody; also called AB016VH; AB016VL
- N-Terminal VD GEO MEAN (FACS geometric mean) (NRP1 on the cell surface): 15.4

B9: AB006 (antibody, V domains shown)
VH: QVQLQQSGAELVRPGSSVKISCKASGYAFSSYWMNWVKQRPGQGLEWIGQIWPGDGDTNYNGKFKGKATLTADESSSTAYMQLSSLASEDSAVYFCARRETTTVGRYYYAMDYWGQGTSVTVSS
VL: DILLTQTPASLAVSLGQRATISCKASQSVDYDGDSYLNWYQQIPGQPPKLLIYDASNLVSGIPPRFSGSGSGTDFTLNIHPVEKVDAATYHCQQSTEDPWTFGGGTKLEIKR
notes: Parent antibody; also called AB006VH; AB006VL
- N-Terminal VD GEO MEAN (FACS geometric mean) [3]: 1570

B10: AB007 (antibody, V domains shown)
VH: QVQLQESGPGLVKPSETLSLTCAVSGGSISGGYGWGWIRQPPGKGLEWIGSFYSSSGNTYYNPSLKSQVTISTDTSKNQFSLKLNSMTAADTAVYYCVRDRLFSVVGMVYNNWFDVWGPGVLVTVSS
VL: ESALTQPPSVSGAPGQKVTISCTGSTSNIGGYDLHWYQQLPGTAPKLLIYDINKRPSGISDRFSGSKSGTAASLAITGLQTEDEADYYCQSYDSSLNAQVFGGGTRLTVLG
notes: Parent antibody; also called AB007VH; AB007VL
- N-Terminal VD GEO MEAN (FACS geometric mean) [4]: 82.5

B11: DVD1879 (bispecific antibody, human IgG1, kappa)
heavy: not shown
light: DILLTQTPASLAVSLGQRATISCKASQSVDYDGDSYLNWYQQIPGQPPKLLIYDASNLVSGIPPRFSGSGSGTDFTLNIHPVEKVDAATYHCQQSTEDPWTFGGGTKLEIKRTVAAPQIVLIQSPAIMSASPGEKVTMTCSASSSVSYMYWYQQKPGSSPRLLIYDTSNLASGVPVRFSGSGSGTSYSLTISRMEAEDAATYYCQQWSGYPYTFGGGTKLEIKRTVAAPSVFIFPPSDEQLKSGTASVVCLLNNFYPREAKVQWKVDNALQSGNSQESVTEQDSKDSTYSLSSTLTLSKADYEKHKVYACEVTHQGLSSPVTKSFNRGEC
notes: Outer domain anti-CD19 (AB006), inner domain anti-IL-6 (AB040); also called DVD1879H; DVD1879L
- N-Terminal VD GEO MEAN (FACS geometric mean) [3]: 1930

B12: DVD1881 (bispecific antibody, human IgG1, kappa)
heavy: not shown
light: ESALTQPPSVSGAPGQKVTISCTGSTSNIGGYDLHWYQQLPGTAPKLLIYDINKRPSGISDRFSGSKSGTAASLAITGLQTEDEADYYCQSYDSSLNAQVFGGGTRLTVLGQPKAAPQIVLIQSPAIMSASPGEKVTMTCSASSSVSYMYWYQQKPGSSPRLLIYDTSNLASGVPVRFSGSGSGTSYSLTISRMEAEDAATYYCQQWSGYPYTFGGGTKLEIKRTVAAPSVFIFPPSDEQLKSGTASVVCLLNNFYPREAKVQWKVDNALQSGNSQESVTEQDSKDSTYSLSSTLTLSKADYEKHKVYACEVTHQGLSSPVTKSFNRGEC
notes: Outer domain anti-CD80 (AB007), inner domain anti-IL-6 (AB040); also called DVD1881H; DVD1881L
- N-Terminal VD GEO MEAN (FACS geometric mean) [4]: 134
